According to the DeepSol protein solubility set:

Test: soluble on expression in E. coli; label from the status in PepcDB or PDB records

Sequence: MYDFKKINNLRGIERETLRVTDCGNLATSNHPDGLGHKLTNNSITVDFSENLLELITKPHDSIDKAIGELYQLSAFTLDNMHSDEIILNTSMPLSANDNDIQEADFGSSNSGRMKRVYRKGLSARYGKIMQIISGIHYNFSFDKDLISNIATNKQVSISDIYFDVLNNYFEFMWLLPYLFGASPICAKTSVKNKPDYLSVLDDKFYVGEYATSLRMSDLGYTSPAQKDLAISYDNVKAYVKDLIQATDDTFADYKRIGLYNSQGQRIQLNDGILQIENEYYSAIRPKQIAKRGERPACALYNRGVEYVEVRVLDVDPFEPVGISKDTALFVEVMLMTCLDKDAKKYHKDIIKQAKQNLTAVAIQGRNPQLKLKKLDDDSEILLKDYALELFDEIEAVAKKMPKEYLDAVEIQKRKVLDISQTPSAKIIELARQHGYKKFILDISRRVSQQFRSYELPAAIVAKLKDQAGQSVAAEKELVANDKISLDEYINRYYKSSKGCC
- soluble on expression in E. coli: not soluble

Sequence: ASVRVVQKNLVFVVGLSQRLADPEVLKRPEYFGKFGKIHKVVINNSTSYAGSQGPSASAYVTYIRSEDALRAIQCVNNVVVDGRTLKASLGTTKYCSY
- soluble on expression in E. coli: soluble

Sequence: MGSDKIHHHHHHMSPDVYLQIFETRRPQLLRLAYRMLGSHAEAEDVVQEAWIRWQAADQAQIAIPAAWLNRVVSRLCLDLMRSARHRRESYIGPWLPEPLIEEEDADHRPDNLTLSLMMALERLSPLERAAFLLHDVFGQSFDEVALALDRSPSAARQLAVRARAHVHIDRPRYKVEREAAEGLTRAFFEACKTGDAAVLSGLLAEDAVLHSDGGGKVYNLLNVIVGAQKLLRMFTSLSRKRGDEMEFVQFTLIDALPGYVWRMGDQIQTTALEVEDGRITRVYTTRNPDKLTRIRLN
- soluble on expression in E. coli: not soluble

Sequence: GPGSMDDLVAVRIKDGIFAGNAGAAADKTLLIMNKITHIINCAGAEVADFFLGEPGFSYLSFPWKDAAGSVCTTILFDAGDDNIHRVVQFIDEALAAGECVLVHSVYGNSRSPALIAAYMIMKYGWKLESALLYLKMAHPDSDIKPHFQRQLRQFAKRHEVDHDIFAQDVDDSQFGLDNDQWMLRNTLLNGLLYKDQMANDLYRQCAEKVDVGNPVNGKAKKAHITFVDTKKGTDA
- soluble on expression in E. coli: not soluble

Sequence: MINRTLKQVEQMINGTGLAEQYEGITIQGVSIDTRKIEKGNLYVPIQGERFDGHAFVDKAVENGAVATLWVKDVANPPENLPVIFVEDTLSALQMLAKNYRDQLDVKVIGVTGSNGKTSTKDIVTSLLATKFKVQKTEGNFNNHIGLPLTILNLEENTEVAVLEMGMSSRGEIEFLSKLARPNAAIITNIGEAHLMDLGSREAIAEAKLEIVTGLQEGGVFVYNGDEPLLTNRVPEMNLIAETVTFGDARANDYYPTTVTLQATGTHFKMNREENISFYLPVLGKHNVYNTLASMAIAKYFGVTWEEMKEGLVTLQMTGMRMEIVKTDSGLTIINDAYNASPTAMEAAFHLMNGLDGFSKKIVVLGDMLELGDQEVQFHYEVGKLIDPAKISYVFTYGKLGAQIAEGAKINFPNERVKAYDNKEELVKELQAVVDTKDVVLVKASRGMKLEEVITMLK
- soluble on expression in E. coli: not soluble

Sequence: MGSDKIHHHHHHMEPEILFRKIDDLGEGPTYDERRKRVYWVDIRGKKFHYLSLENSEMKTFQSIGMISSIVPTDRDLMAATVDHGLYLIDDAGKHTLLTEVEKDQKSTRFNDGKADPFGNYVAGTMDLEEKRPIGSLYVLTGKTIRRILENLTISNGIAWNTKKKVFYHIDTPKRRVDAYSYDGKMNIERLGTAVDFRNEVGNPDGMTIDADGNLWVAHWGGNRITIHDPERQKKIDEIIFPAQNITSCVFAGNGLRDLYVSSASNGNPDDMGGSLFVVHTDYAGSKTFTFSVP
- soluble on expression in E. coli: not soluble

Sequence: MSLETINNSAKKQPGLYISGQYKPSVSVFSNFSVKETNVPTKQLIALKKDINSVAVGSNATTGISNPGNFTIPYTAEFQDNVANFNGAVGYSFPDSLRIEIEGFHEKFDVKNPGGYTQVKDAYRYFALARDLKDGFFEPKAEDTGVYHTVMKNDGLSILSTMVNVCYDFSVDELPVLPYICAGMGINAIEFFDALHVKFAYQGKLGISYQLFTKVNLFLDGYYHQVIGNQFKNLNVNHVYTLKESPKVTSAVATLDIAYFGGEVGIRFTFEGHHHHHH
- soluble on expression in E. coli: not soluble

Sequence: MIGRLRGIIIEKQPPLVLIEVGGVGYEVHMPMTCFYELPEAGQEAIVFTHFVVREDAQLLYGFNNKQERTLFKELIKTNGVGPKLALAILSGMSAQQFVNAVEREEVGALVKLPGIGKKTAERLIVEMKDRFKGLHGDLFTPAADLVLTSPASPATDDAEQEAVAALVALGYKPQEASRMVSKIARPDASSETLIREALRAAL
- soluble on expression in E. coli: soluble

Sequence: MDSKILTMFNQGKHEEAIQAAVKAIDAAPDDPKRYAMLATMLISIKALDQAGELLAKARQLFPEDLELQYTAGLFAYAQADFAAAVSWFAKVRTDQTLKNDATYMLALSYQQAGQPTKALAFALTAHDLAPKQLDTALLAADLLMANDVFDAAARVLKPLLATEQPQVLFTYGMALSAAGKDGSHYLNKAKALDPKGYDQKANIVADINRFLRLQEGLEHHHHHH
- soluble on expression in E. coli: not soluble

Sequence: MANSGEEKLKLYSYWRSSCAHRVRIALALKGLDYEYIPVNLLKGDQFDSDFKKINPMGTVPALVDGDVVINDSFAIIMYLDEKYPEPPLLPRDLHKRAVNYQAMSIVLSGIQPHQNLAVIRYIEEKINVEEKTAWVNNAITKGFTALEKLLVNCAGKHATGDEIYLADLFLAPQIHGAINRFQINMEPYPTLAKCYESYNELPAFQNALPEKQPDAPSSTI
- soluble on expression in E. coli: soluble

Sequence: MSPLPIIEVMPKLLSGITNSPQLILKAAPGAGKSTYFPLQLLQAGGFHGKIIMLEPRRLAARNIARYLAQQLGEEVGQRVGYRVRGENRVSRATQLEIVTEGIMTRMLQNDPELDGVDVLIFDEFHERSIHADTALALALEVQSALREDLKIVVMSATLDQQALQNLLPQASYVESQGRGFPIEIRYQPLRSDEPLVTAMQRQIRHLLQHETGSLLAFLPGAASINQLTEQLSDLASEVEICPLYGQMEFAAQQRAIAPTAAGRRKVVLATNIAETSLTIEGIRIVLDSGLERSARFDLKTGITRLEQVRIAQSSAEQRAGRAGRLEPGICVRLYSEAQLKQQPWVPEPEMLHTDLAPLALELAQWGAQPSDLAWLNLPPSSAFAQAQQLLQRLGLLDARTQITAAGKEAHLLGVEPRIAAMLLSADRLGESALQSALALTVLLEEPERQVIDVQHSLHRWQQGRHPKQKLLIQRAQSLAHKLDTAFSLSSVDSAWLPLVACLAFPDRIAQQRGQQTGQFLLANGHGAWLAVEDRLSAADYLVALDLMRGQTQASQIFSALELDIHALERVLPALISRVEQVDWDEKAGRLSAEAQWRIDQLVLRREKLPEPDKQKMTQALLSYVRRKGLTVLQWSEDASEWLARARCAAEWLPEEAWPALDDETLLARLELWLEPYLAGVTSVKGLQSVSVLQALKHYLGWELSQQLDEWLPTHHLLPTGNHKKIRYQLGMEPTLSVRMQEVFGEQSSPRVAKGTRAVVMELLSPAQRPLQVTRDLASFWAGAYKEVQKEMKGRYPKHVWPDDPANHVATSKTKRQLNA
- soluble on expression in E. coli: soluble

Sequence: MAHHHHHHMNPMDALIARAAAEERQQAKMKQKSTRVSGESDLDHPSPSAAFPDSVISRGERASILCYVDPAATTTSSNFSVRRLRTFSACPTFKGGMIMRLTMCHDAQHLTVAFESGHIVLARYRDADVIDMADEPGEVCHAGGSMSVARVRNVTRAFADSALACWWSGRRMLACSSEGGMHCYDVSATAEGLLEAHLVWSVTLRKGIGSVFLQRNLVVAGCWDSTLRLYDARDGRLVSILSYQRETINEVRAAPPSIARVAAFGFDVRQPRLYAGQPGALSTKIPACIASNSKAVTQGNLPQFSESPLRETYVAGTPTPHSSSGSLAAEEQLVYLFASASKACTVALWRVDLGLVVEQTAREAIAAQTV
- soluble on expression in E. coli: not soluble

Sequence: MGSDKIHHHHHHMEISDIIYGQHHIDGVLEELIKSAPVQRLKGIYQGGASFLVNRKWNVTRYEHSIGVMLLIKKLGGTIEEQIAGLLHDVSHTAFSHVVDVVFENQAEDYHENIFQQVIVHSEIPDILQKHGYHTEELLSDDSRWTLLEQPAPELCADRTDYTLRDMYRYGHINLHEAQTFLDHLIVRNGRMFPDSIEAAEWFVSVYYKEVIDFFLNPVNVYGYEYLARALKAALRHDVISAEDLLKTDQEVLNILRASKNEEVLSLLTSIHPGIQVIEDDIQYDFHQKKKMRLIDPSIFLDDKWIKSSGVSEKVRKMGEAAYQKAKKGVYIKILKQ
- soluble on expression in E. coli: not soluble

Sequence: MKIEKINENKIKVTISIDDLLERNIDLDTLNYNTPAAQELFWDMMEQAEIQFGFDASDSQICVEAIPDPEEGFVIIITKLDEDGEFESIHKYIKNRFRKSDLRVRKRNSRVSSSIVIYFFNNFEDLCSVCQKLRDIYSGESTLYRLKGVYYLVLTKNSWSVANLRSFEPILSEFGTKVSNVSFYEGYLNEHGEKIIEYNAVETINDYFHR
- soluble on expression in E. coli: soluble

Sequence: MILMESLSVSGTETVSVPQDWNVMDVIGAKSWYVVSEKEPSWEEIIKGKTVEAVDEPPSRFEVISTSPLVLKKDTKYYIYNSTLKKWLVLEYEEPQSSRKLVMNGQGKVTLLLRSSGSWNVRYYLFEDTLTGNAFLSVSGVESADVFLISRPAGEASIWKGMYLSASPSREMPEEHESEEVKVYHLGKVKDLDKSPVVNLIETNLFNVNEYYSYSFAVNDSIFDYQKTTFTRSFMTPVDLPGGTVSIFSNISGVDIMIGETSIPDTPKNSLLELPVTDSWDVRVKGEILDERNYKDTYEYERTWRVTVQNLNETESKVRINIYGNMMRLLRSSIKPLKETSDQIVFELIVPPNSEKEFEFKVRSGWLEHHHHHH
- soluble on expression in E. coli: not soluble

Sequence: MNMTDDLGGNILLLSGHPGSGKSTIAEALANLPGVPKVHFHSDDLWGYIKHGRIDPWLPQSHQQNRMIMQIAADVAGRYAKEGYFVILDGVVRPDWLPAFTALARPLHYIVLRTTAAEAIERCLDRGGDSLSDPLVVADLHSQFADLGAFEHHVLPVSGKDTDQALQSAINALQSGRFRIDASLEHHHHHH
- soluble on expression in E. coli: soluble

Sequence: MGSDKIHHHHHHMTTEFKGQTIPPMHTGGQGAVTGQRFLDRLRQNPPTLYIDGQRVADPTTHPSTRNMCQSLAGLYDLQFQEDLKETLTYEDGGKRYARSFMVPRTKDDLRLIAESHRIRANYGLGFLGRAPDYMNANVMAAGAGAEYFNGCSAAVPGDPKRDFAANMRRYYEYVQGNDLCLTHALTNPQVNRSKMASELPDPYIALGIVEETDEGVIVRGARMMATLPIADEILIFPSTVLKENADKSRYAMGFGIPTNTPGLSFQCREPIDVGRDPEDHPLSSRFDEQDAFVIFDDVLVPWERIFLLYDVELANKAYAGTDAVLHMAYQVVNLKIAKTEAFLGTAQSIVNAIGSGGFQHVQAKIAEIIIMLEIMKALEVAAREQAEPNDYGVMTPARAPLDAARNYYPANHARLPELLQLLGASGIIMMPSKADREGPLGPQIAKYLQTGNANADERLRLFRLAWDMSMSSFAGRQELYERYFFGDPVRMHSALYEVYDSSEAVARIGEFLQRK
- soluble on expression in E. coli: not soluble

Sequence: MAHHHHHHMPGFADSFNGVAVGSSTMLTRGTHSSQDAVHHTDTATAAEWRALYGASADMMNSTAHTYRACGAGVSYMTPIFHLTANDVTILSMEHNNHCRLLGIATSKNQIFVTWTQVMPVIENMGMLRAPDDDLFGGEQATPVDERLLEWDPATMSILIDELPYTCTELSWAPWQQGIYLAGLCPGHGIRLYRYSHGNWALDDCIRSTESVSCSISTNFTVACACRRGRVELWVRGSTASGTAVAPGPSPSLSAGDSTATNGGDGVSHTSWVLCRVLTLPFSEDDNGGSRTHDGDRSGGAGSPSAVAARHRRRDILGVAWVESGALLAAGDQGGSVYVVAATQDSTRLGEVVYHQLPSALCGPCKQVAWSPSSGRSFLCLAMVFTTCVRLVLFRRPSFMNAAGLPHAARSVGGSGGGRMGWAHSSVAPIAASSLEVLAMTQVPCEEVAKLSWNNTGTRFVTAHLDSSVNIWAVDFRYRHPVKGDGANATSGREEANTLHSVDSARMDRQVETSVFAAAGEERLGIVVSVQCTSAVHPYHAVSK
- soluble on expression in E. coli: not soluble
